The target of test [1] is T1, Aβ (Homo sapiens, UniProt P05067). Conditions: from Chinese patent CN 101531703A; cited from earlier work.
Test [2] addresses T2, Aβ1-42 (Homo sapiens, UniProt P05067).
T2 construct: purchased Sigma, Inc. (US)
In words: ThT fluorescence spectrophotometry of Aβ1-42 aggregation. Conditions: Aβ1-42 11.07 μmol/L, peptide 44.3 μmol/L, 37° C., 24 h, PBS pH 7.4; x ± S. The test is classed as biochemical. As to the method: 1.2 the Inhibition Effect of HPYD on Aβ Aggregation was Analyzed by ThT Fluorescence Spectrophotometry.
The degree of Aβ aggregation may be reflected by ThT fluorescence intensity. Aβ1-42 lyophilized powder was formulated in 50 mmol/L PBS phosphate buffer (pH 7.4) to obtain a solution in a concentration of 22.15 μmol/L. The polypeptides H102 and HPYD were also formulated in 50 mmol/L PBS phosphate buffer (pH 7.4) to obtain a solution in a concentration of 88.60 μmol/L. In the experiment, Aβ1-42 was mixed with H102 or HPYD in 1:1 volume ratio to a final concentration of 11.07 μmol/L and 44.3 μmol/L, respectively. […] ThT fluorescence intensity was measured by using VARIAN PTC-Au00-01058 fluorescence spectrophotometer at the excitation wavelength of 453 nm and emission wavelength of 478-486 nm. […]
The fluorescence intensity from the aging group (in which Aβ1-42 lyophilized powder was formulated in 50 mmol/L PBS phosphate buffer (pH 7.4) to obtain a solution in a concentration of 11.07 μmol/L, and the obtained solution was incubated at 37° C. for 24 hours) from which baseline fluorescence intensity was subtracted would be taken as 100%, and the inhibitory rate of the drug on Aβ1-42 in each group was calculated. […]
Inhibitory rate=(the relative fluorescence intensity of 1-β sheet blocking peptide/the relative fluorescence intensity of Aβ1-42)×100%

Test [3] addresses T2, Aβ1-42. The test can be described thus: Electron microscopy of Aβ1-42 fiber formation. The format is biochemical. Conditions: for Aβ fibers observed by electron microscope: co-incubation with Aβ1-42 for 5 days at 37° C. As to the method:
1.4 the Inhibition Effect of HPYD on Aβ Aggregation was Observed by Using Electron Microscope. Aβ1-42 solution in PBS phosphate buffer (11.07 μmol/L, 20 μl) was formulated as described in the above 1.2 section, and incubated alone at 37° C. for 5 days. Meanwhile, Aβ1-42 (22.15 μmol/L, 10 μl) was respectively co-incubated with […] or HPYD (88.61 μmol/L, 10 μl) under the same conditions for 5 days. 5 μl sample was taken from each group and dropped on the carbon support film on 300-mesh deionized copper grids, and then kept still at ambient temperature for 15 min. The samples were negatively stained in dark with 2% uranyl acetate for 2 min. After drying, the samples were observed using transmission electron microscope. In the above-mentioned studies, Aβ1-42 was used as negative control, and […] was used as positive control.

Test [4] has as its target T2, Aβ1-42. In words: FT-IR spectrometry of Aβ1-42 secondary structure (β-sheet). The format is biochemical. Conditions: co-incubation with Aβ1-42 at 37° C. for 72 h. As to the method:
1.3 the Inhibition Effect of HPYD on Aβ1-42 Aggregation was Observed by FT-IR Spectrometry.
22.15 μmol/L Aβ1-42 solution in PBS phosphate buffer was formulated in quadruplicate as described in the above 1.2 section. To two solutions, PBS phosphate buffer was added in equal volume respectively and incubated alone at 37° C. for 30 min (30 min, aging group) and 72 h (72 h, aging group). To the other two solutions, H102 (88.60 μmol/L) and HPYD (88.60 μmol/L) were added in equal volume respectively and co-incubated at 37° C. for 72 h. After incubation, each sample was vacuum lyophilized. Then, 3.5 μg of H102 and 3.7 μg of HPYD were respectively mixed with anhydrous potassium bromide (120-180 mg) thoroughly, and pressurized for 5 min by tablet machine to form potassium bromide tablet. The measurement and analysis were carried out by using Nicolet Magna 760 FT-IR instrument, with a resolution of 4 cm^−1 and a spectrum range of 3500-400 cm^−1. The amide I band spectrum at 1700-1600 cm^−1 was analyzed using Origin 8.0 software. The fitting range was expanded to 1750-1550 cm^−1 due to the complexity of the components in the samples and the effect of vibration peaks close to amide I band on the secondary structure.
In the above-mentioned studies, Aβ1-42 was used as negative control, and H102 was used as positive control.

Test [5] has as its system APP/PS1 double transgenic mice. In words: Morris Water Maze spatial probe test. The test is classed as in vivo. Conditions: 30 days, n = 7. As to the method:
(§1) 1.1 Animals: Fourteen APP/PS1 double transgenic mice were randomized into model group and drug administration group. Seven C57BL/6J mice with the same age and genetic background were used in normal control group. By way of nasal administration, 33 mg/ml HPYD in physiological saline solutions were administered to the mice in drug administration group in a rate of 5 μl/d using drug delivery devices, and the same volume of physiological saline solutions were administered nasally to the mice in normal control group and model group. The detection was performed 30 days after the administration.
1.2 Morris Water Maze test: (1) Place Navigation: A platform is placed in a circle within the third quadrant of water maze. Each mouse swims twice (90 s/time) during the same time periods of every day for 5 days. The time required for a mouse's finding and climbing onto the platform, i.e. escape latency, is recorded. If the mouse could not find the platform within 90 s, it is guided to the platform and kept for 20 s. In this case, the escape latency is recorded as 90 s. […] The swim track of the mouse within 90 s, the numbers of leaping over the hidden platform, the original swimming angle after water entry, and so on are recorded for testing the memory ability of the mouse. […]

Test [6] deals with APP/PS1 double transgenic mice. In words: Morris Water Maze place navigation test. The format is in vivo. Particulars: nasal 33 mg/ml at 5 μl/d, 30 days, n = 7. As to the method:
as §1
1.2 Morris Water Maze test: (1) Place Navigation: A platform is placed in a circle within the third quadrant of water maze. Each mouse swims twice (90 s/time) during the same time periods of every day for 5 days. The time required for a mouse's finding and climbing onto the platform, i.e. escape latency, is recorded. If the mouse could not find the platform within 90 s, it is guided to the platform and kept for 20 s. In this case, the escape latency is recorded as 90 s. (2) Spatial Probe: The platform is removed at day 6, and during the same time period, a water entry point is optionally selected for putting a mouse into water. Each mouse swims once (90 s/time). The swim track of the mouse within 90 s, the numbers of leaping over the hidden platform, the original swimming angle after water entry, and so on are recorded for testing the memory ability of the mouse.
1.3 Data processing: The data obtained is expressed in mean±standard deviation (χ±5). Statistical analysis was performed using statistical software SPSS16.0. One-way ANOVA and pairwise comparison were employed. P<0.05 represents that the difference is statistically significant.

The next test deals with APP. The test can be described thus: Immunohistochemical staining of APP in brains of APP/PS1 double transgenic mice. The test is classed as in vivo. Conditions: nasal 33 mg/ml at 5 μl/d, 30 days, n = 7, x ± S. As to the method: as §1, with “control group. These mice were all purchased from the Experimental Animal Research Center of Peking Union Medical College, Chinese Academy of Medical Sciences. By way” for “control group. By way”, “administration group at a rate” for “administration group in a rate”, “detection was carried out 30 days” for “detection was performed 30 days”
(§2) 1.2 Drugs and reagents: Anti-Aβ1-42 antibody was purchased from Chemicon Inc. Anti-APP antibody, ready-to-use SABC Immunohistochemistry Staining Kit, DBA Color Development Kit and 0.1% polylysine were purchased from Wuhan Boster Biological Technology, Ltd. Other reagents have analytical purity.
(§3) 1.3 Immunohistochemical Staining: After Morris Water Maze was carried out in order to determine the learning ability of the experimental mice, the mice were anaesthetized by celiac injection with 0.1 kg/L chloral hydrate at a dose of 4 ml/kg. Rapid intubation was carried out via left ventricle. […]

The target of test [7] is T1, Aβ. The test can be described thus: Immunohistochemical staining of Aβ in brains of APP/PS1 double transgenic mice. The format is in vivo. Details: from tissue; host or cells: brain (cortex, hippocampus CA1) of APP/PS1 double transgenic mice. Particulars: nasal 33 mg/ml at 5 μl/d, 30 days, n = 7, x ± S. The method, then:
as §1, with “control group. These mice were all purchased from the Experimental Animal Research Center of Peking Union Medical College, Chinese Academy of Medical Sciences. By way” for “control group. By way”, “administration group at a rate” for “administration group in a rate”, “detection was carried out 30 days” for “detection was performed 30 days”
as §2, §3

Ends that are not written are not given here.

For HKQLPFFEED [H102, reference compound], the “inhibitory rate on Aβ aggregation” value with Aβ [1] is on record as 27.84%. The “Inhibitory rate (%) on Aβ1-42 aggregation” value in the test with Aβ1-42 [2] turned out to be 14.168 ± 0.038 %. Moreover, the “Aβ fibers observed by electron microscope” value with Aβ1-42 [3] was “Aβ fibers were significantly decreased”. Also, the “transmittance in each wavenumber representing secondary structures, versus Aβ incubated alone for 72 h” value in the test with Aβ1-42 [4] was “significantly higher transmittance”.
Turning to HKQLPFYEED [HPYD], in the test with Aβ1-42 [2], the “Inhibitory rate (%) on Aβ1-42 aggregation” value was 27.013 ± 0.018 %. For the same sequence, the “numbers of leaping over the hidden platform (numbers)” value in test [5] (day 6, 90 s, nasal 33 mg/ml at 5 μl/d) is 2.25 ± 1.258 numbers. Moreover, the “Orientation angles (degree)” value in test [5] (day 6, nasal 33 mg/ml at 5 μl/d) is listed as 40.478 ± 26.533 degree. For the same sequence, the “daily mean escape latency” value stood at 88.127 ± 4.137 s in test [6] (1 d); 80.404 ± 15.646 s in test [6] (2 d); 67.740 ± 24.389 s in test [6] (3 d); 45.950 ± 19.211 s in test [6] (4 d); 24.974 ± 9.685 s in test [6] (5 d). In the test on APP, the “APP ratio of positive cells (%), Cortex” value was 14.25 ± 3.25 %. For the same sequence, in the test with APP, the “APP ratio of positive cells (%), Hippocampus CA1 area” value is 12.75 ± 1.83 %. In addition, in the test with Aβ1-42 [3] (co-incubation with Aβ1-42 for 5 days), the “inhibition effect on Aβ aggregation by electron microscopy, compared with H102” value is “stronger inhibition effect on Aβ aggregation than H102”. The “Aβ fibers observed by electron microscope” value in the test with Aβ1-42 [3] is “significantly decreased and thinner”. In addition, the “content of β-sheet (FT-IR, 1640-1620 cm^−1)” value with Aβ1-42 [4] is reported as “lowest”. In the test with Aβ1-42 [4], the “transmittance in each wavenumber representing secondary structures, versus Aβ incubated alone for 72 h” value is reported as “significantly higher transmittance”. The “Aβ ratio of positive cells (%), Cortex” value in the test with Aβ [7] was found to be 15.85 ± 2.77 %. The “Aβ ratio of positive cells (%), Hippocampus CA1 area” value in the test with Aβ [7] came to 11.09 ± 2.47 %.

Source of the values: patent US10400009B2, “β-sheet breaker peptide used for preventing and/or treating alzheimer's disease” (TIANJIN MEDICAL UNIVERSITY, priority 2014, dated 2019).
